Assay [1] has as its target Arp2/3 complex branch junction (sheep Arp2/3 complex bound to rabbit actin mother and daughter filaments) (sheep (endogenous in brain) | rabbit) (UniProt P68135).
The target is the same in assay [2]. This is another data set of the same source.
Assay [3] shares this target. The experiment in a line: microfluidics debranching assay under pulling force (TIRF microscopy of single branches); ADP-Arp2/3 branch junctions exposed to various GMF concentrations; constant average force 2.8 pN; 0.15 µM actin, 200 µM ATP; affinity from the fit of the saturation curve of the debranching rate.

The values that follow come from article PMC13348673.

Consider “Mouse cortactin full length (amino acids 1–546) (from UniProt Q60598 1-546) (natural protein)”, for which, in assay [1], the stability (inverse debranching rate) of ADP-Arp2/3 complex branches at 6 pN with 20 nM cortactin against no cortactin was 30 fold.
For orientation: Kd means the concentration at which binding is half-saturated. Read a low Kd as a tighter complex. For “Recombinant N-terminal 6xHis-tagged human GMFγ (amino acids 7–140) (from UniProt O60234 7-140) (natural protein)”, the debranching rate of ADP-Arp2/3 complex branch junctions against GMF concentration (2.8 pN, 0.15 µM actin, 200 µM ATP) in assay [2] amounted to 6 fold. Further, the equilibrium dissociation constant (Kd) in assay [3] was determined as 0.03 µM.
